Measurements reported in US20250250357A1 (NANJING ZAIMING PHARMACEUTICAL, published 2025).
Read-outs that look alike come from different tables or passages of the source.

Experiments:
[1] = biological target: T1, human MSLN-FL-his protein (human, UniProt Q13421 296-580); experiment: competitive ELISA; row F7.2.3
T1 construct: made in HEK293E cells, purified on nickel column; also called hMSLN-FL-his; human MSLN full-length protein; not shown: His tag

[2] = biological target: T1, human MSLN-FL-his protein; experiment: competitive ELISA; row Tab021
Method: (§1) In order to identify antigen-binding sites of antibodies, MSLN chimeric antibodies were grouped using competitive ELISA.
(§2) The chimeric antibodies were diluted to 2 μg/mL with PBS and allowed to coat 96-well high-adsorption ELISA plates at 50 μL/well. After the plates were coated at 4° C. overnight, 250 μL of a blocking buffer (PBS containing 2% (w/w) BSA) was added for two hours of blocking at room temperature. 40 μg/mL of the antibodies to be tested were added, and then the human MSLN-FL-His protein with an EC₈₀ concentration corresponding to each of the antibodies to be tested was added for incubation for 2 h. The plates were washed 5 times with PBS, an HRP-labeled anti-His secondary antibody (purchased from Genescript, Cat. No. A00612) was then added for incubation for 1 h, and the plates were washed 5 times again. A TMB substrate was added at 50 μL/well, and after 10 minutes of incubation at room temperature, a stop solution (1.0 M HCl) was added at 50 μL/well. OD₄₅₀ nm values were read using an ELISA plate reader (Insight, purchased from PerkinElmer), and the competition rate between the antibodies was calculated according to the OD₄₅₀ nm values using a formula.

[3] = biological target: T1, human MSLN-FL-his protein; experiment: competitive ELISA; row Tab142
Method: as §1, §2

[4] = biological target: T1, human MSLN-FL-his protein; experiment: competitive ELISA; row F7.18.10
Method: as §1, §2

[5] = biological target: T1, human MSLN-FL-his protein; experiment: SPR (Biacore), antibody captured on Protein A chip;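 further: flow cell at 25 °C, antigen injected for 240 s at five concentrations from 200 nM downward, dissociation followed up to 600 s, double-referenced, fitted with Langmuir 1:1 model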
[6] = biological target: T2, human MSLN-R3 on HEK293T-hMSLN-R3 recombinant cells (human, UniProt Q13421 487-606); experiment: FACS, HEK293T-hMSLN-R3 cells
T2 construct: the C-terminal limit is uncertain; also called human MSLN-R3 membrane protein
T2 sequence (Q13421 495-614): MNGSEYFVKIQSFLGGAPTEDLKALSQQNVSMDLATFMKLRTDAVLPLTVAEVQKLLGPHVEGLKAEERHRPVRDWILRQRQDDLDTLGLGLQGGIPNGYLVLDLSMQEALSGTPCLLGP
Method: (§3) Then a complete medium was added to stop the digestion, and the cells were blown into a single cell suspension. After counting, the cells were centrifuged, and the cell pellet was washed twice with PBS, resuspended to 2×10⁶ cells/mL in an FACS buffer (PBS+2% fetal bovine serum), and added to a 96-well FACS reaction plate at 50 μL/well. An antibody to be tested or a control antibody (diluted in a 5-fold gradient from a starting concentration of 200 nM) was added at 50 μL/well and uniformly mixed with the cell suspension, and the resulting mixture was incubated at 4° C. for 1 h. […] After the plate was centrifuged and washed 3 times again with a PBS buffer and resuspended in 100 μL of PBS, assay and analysis were performed by FACS (FACS Canto™, purchased from BD). Data analysis was performed by software (CellQuest) to obtain the mean fluorescence intensity (MFI) of the cells. Then, analysis was performed by software (GraphPad Prism8), data were fitted, and EC₅₀ values were calculated.

[7] = biological target: T2, human MSLN-R3 on HEK293T-hMSLN-R3 …; experiment: FACS, HEK293T-hMSLN-R3 cells; remark: listed apart in the source
Method: as §3

[8] = biological target: T2, human MSLN-R3 on HEK293T-hMSLN-R3 …; experiment: FACS, HEK293T-hMSLN-R3 cells; remark: listed apart in the source
Method: as §3

[9] = biological target: T2, human MSLN-R3 on HEK293T-hMSLN-R3 …; experiment: FACS, HEK293T-hMSLN-R3 cells; remark: listed apart in the source
Method: as §3

[10] = biological target: T2, human MSLN-R3 on HEK293T-hMSLN-R3 …; experiment: FACS, HEK293T-hMSLN-R3 cells; remark: listed apart in the source
Method: as §3

[11] = biological target: T3, human MSLN-R3 protein (human, UniProt Q13421 487-598); experiment: ELISA, MSLN-R3 coated, antibody 1 nM
T3 construct: also called hMSLN-R3
T3 sequence (Q13421 495-606): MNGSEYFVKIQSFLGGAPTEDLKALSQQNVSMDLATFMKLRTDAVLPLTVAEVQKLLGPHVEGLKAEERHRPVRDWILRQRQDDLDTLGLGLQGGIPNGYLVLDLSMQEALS

[12] = biological target: T3, human MSLN-R3 protein; experiment: ELISA, MSLN-R3 coated, antibody 10 nM
[13] = biological target: T3, human MSLN-R3 protein; experiment: ELISA, MSLN-R3 coated, antibody 0.1 nM
[14] = biological target: T3, human MSLN-R3 protein; experiment: ELISA, MSLN-R3 coated, antibody 100 nM
[15] = biological target: T3, human MSLN-R3 protein; experiment: ELISA, MSLN-R3 coated, antibody 0.01 nM
[16] = biological target: T3, human MSLN-R3 protein; experiment: ELISA, MSLN-R3 coated, antibody 0.001 nM
[17] = biological target: T3, human MSLN-R3 protein; experiment: ELISA, MSLN-R3 coated, antibody 0.0001 nM
[18] = biological target: T4, human MSLN-R2-his protein (human, UniProt Q13421 391-486); experiment: ELISA; antibody 1 nM
T4 construct: also called hMSLN-R2-his; not shown: His tag
T4 sequence (Q13421 other isoform, or with tags, fused parts or gaps): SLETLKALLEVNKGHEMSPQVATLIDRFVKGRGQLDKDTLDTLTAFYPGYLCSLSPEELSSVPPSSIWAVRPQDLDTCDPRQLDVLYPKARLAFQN

[19] = biological target: T5, human MSLN-R3-his protein (human, UniProt Q13421 487-598); experiment: ELISA; antibody 1 nM
T5 construct: also called hMSLN-R3-his; not shown: His tag
T5 sequence (Q13421 495-606): as the sequence (Q13421 495-606) above

[20] = biological target: T4, human MSLN-R2-his protein; experiment: ELISA; antibody 1 nM; remark: listed apart in the source
[21] = biological target: T5, human MSLN-R3-his protein; experiment: ELISA; antibody 1 nM; remark: listed apart in the source
[22] = biological target: T4, human MSLN-R2-his protein; experiment: ELISA; antibody 10 nM
[23] = biological target: T5, human MSLN-R3-his protein; experiment: ELISA; antibody 10 nM
[24] = biological target: T4, human MSLN-R2-his protein; experiment: ELISA; antibody 0.1 nM
[25] = biological target: T4, human MSLN-R2-his protein; experiment: ELISA; antibody 100 nM
[26] = biological target: T5, human MSLN-R3-his protein; experiment: ELISA; antibody 0.1 nM
[27] = biological target: T5, human MSLN-R3-his protein; experiment: ELISA; antibody 100 nM
[28] = biological target: T4, human MSLN-R2-his protein; experiment: ELISA; antibody 0.01 nM
[29] = biological target: T5, human MSLN-R3-his protein; experiment: ELISA; antibody 0.01 nM
[30] = biological target: T4, human MSLN-R2-his protein; experiment: ELISA; antibody 0.001 nM
[31] = biological target: T5, human MSLN-R3-his protein; experiment: ELISA; antibody 0.001 nM
[32] = biological target: T4, human MSLN-R2-his protein; experiment: ELISA; antibody 0.0001 nM
[33] = biological target: T5, human MSLN-R3-his protein; experiment: ELISA; antibody 0.0001 nM
[34] = biological target: T4, human MSLN-R2-his protein; experiment: ELISA; antibody 0 nM (blank)
[35] = biological target: T5, human MSLN-R3-his protein; experiment: ELISA; antibody 0 nM (blank)

T1 sequence (Q13421 other isoform, or with tags, fused parts or gaps): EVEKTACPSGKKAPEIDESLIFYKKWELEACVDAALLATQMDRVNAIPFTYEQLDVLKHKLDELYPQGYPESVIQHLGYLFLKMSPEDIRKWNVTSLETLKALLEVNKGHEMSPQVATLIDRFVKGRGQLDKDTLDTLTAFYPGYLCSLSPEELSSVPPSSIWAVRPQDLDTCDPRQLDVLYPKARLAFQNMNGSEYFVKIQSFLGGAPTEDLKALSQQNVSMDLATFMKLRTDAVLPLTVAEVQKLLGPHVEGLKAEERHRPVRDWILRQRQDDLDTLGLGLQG

Row | competition rate [1] | competition rate [2] | competition rate [3] | competition rate [4] | Kd [5] | koff [5] | kon [5] | EC50 [10] | Maximum_MFI [10] | OD450 nm [11] | OD450 nm [12] | OD450 nm [13] | OD450 nm [14] | OD450 nm [15] | OD450 nm [16] | OD450 nm [17] | Binder | other results
1 | -29.4% | 9.2% | 94.4% | 97% | 0.64 nM | 0.00117 s⁻¹ | 1.83e+06 M⁻¹ s⁻¹ |  |  |  |  |  |  |  |  |  | S009-F7.18.10 (antibody, human IgG1, kappa, V domains shown, human-murine chimeric antibody, human IgG1/kappa constant regions) VH: QVQLQQSGAELVRPGTSVKVSCKASGYAFTNYLIEWVKQRPGQGLEWIGVINPGSGGTKYNEKFKGKATLTADKSSSTAYMQLSSLTSEDSAVYFCASDYDYDPFAYWGQGTLVTVSA VL: DIVMTQSHKFMSTSVGDRVSITCKASQDVSTAVAWYQRKPGQSPKLLIYWASTRHTGVPDRFTGSGSGTDYTLTISYMQAEDLALYYCQQHYSTPYTFGGGTKLEIKR | 
2 |  |  |  |  |  |  |  | 30.2 nM | 777 MFI | 0.25 OD | 1.05 OD | 0.07 OD | 1.89 OD | 0.05 OD | 0.05 OD | 0.05 OD | Tab111 (scFv, not shown: small tags and cut ends, also called YP218 VL-(G4S)3-VH-his antibody; positive control) scFv: DVVMTQTPASVSEPVGGTVTIKCQASQRISSYLSWYQQKPGQRPKLLIFGASTLASGVPSRFKGSGSGTEYTLTISDLECADAATYYCQSYAYFDSNNWHAFGGGTEVVVGGGGSGGGGSGGGGSQQQLEESGGGLVKPEGSLTLTCKASGFDLGFYFYACWVRQAPGKGLEWIACIYTAGSGSTYYASWAKGRFTISKASSTTVTLQMTSLAAADTATYFCARSTANTRSTYYLNLWGPGTLVTVSS | EC50 [6]: 1.22 nM; Maximum_MFI [6]: 4970 MFI; EC50 [7]: 0.76 nM; Maximum_MFI [7]: 2120 MFI; EC50 [8]: 0.76 nM; Maximum_MFI [8]: 2120 MFI; EC50 [9]: 1.6 nM; Maximum_MFI [9]: 3070 MFI
3 |  |  |  |  |  |  |  | 166 nM | 795 MFI | 0.12 OD | 0.72 OD | 0.06 OD | 1.88 OD | 0.05 OD | 0.05 OD | 0.05 OD | F3.38.10-L2H3a (scFv, not shown: small tags and cut ends, also called S009-F3.38.10 humanized antibody VL2 + VH3a) scFv: DIVMTQSPDSLAVSLGERATINCRSSQSLIHSDGNTYLQWYQQKPGQSPKLLIYKVSNRFSGVPDRFSGSGSGTDFTLTISSLQAEDVAVYYCSQTTHVPFTFGQGTKLEIKGGGGSGGGGSGGGGSEVQLVQSGAEVKKPGASVKVSCKASGYIFTDYYMNWVRQAPGQRLEWMGVINPKQGVISHNQKFKGRVTITVDKSANTAYMELSSLRSEDTAVYYCANYGSRFYAMDYWGQGTTVTVSS | 
4 |  |  |  |  |  |  |  |  |  |  |  |  |  |  |  |  | Tab106 (YP218, hIgG1) (antibody, V domains shown, Control antibody; VH and VL recombined into human IgG1 CH and CL expression vectors; also called YP218 human IgG1 antibody; anti-human MSLN-R3 antibody) VH: QQQLEESGGGLVKPEGSLTLTCKASGFDLGFYFYACWVRQAPGKGLEWIACIYTAGSGSTYYASWAKGRFTISKASSTTVTLQMTSLAAADTATYFCARSTANTRSTYYLNLWGPGTLVTVSS VL: DVVMTQTPASVSEPVGGTVTIKCQASQRISSYLSWYQQKPGQRPKLLIFGASTLASGVPSRFKGSGSGTEYTLTISDLECADAATYYCQSYAYFDSNNWHAFGGGTEVVVRT | OD450 nm [18]: 0.05; OD450 nm [19]: 0.62; OD450 nm [20]: 0.05; OD450 nm [21]: 0.62; OD450 nm [22]: 0.11; OD450 nm [23]: 1.75; OD450 nm [24]: 0.05; OD450 nm [25]: 0.7; OD450 nm [26]: 0.12; OD450 nm [27]: 2.29; OD450 nm [28]: 0.04; OD450 nm [29]: 0.06; OD450 nm [30]: 0.04; OD450 nm [31]: 0.05; OD450 nm [32]: 0.04; OD450 nm [33]: 0.05; OD450 nm [34]: 0.05; OD450 nm [35]: 0.05
5 | 93.3% | -3.83% | 3.48% | 54.1% | 13.2 nM | 0.00851 s⁻¹ | 643000 M⁻¹ s⁻¹ |  |  |  |  |  |  |  |  |  | S009-F7.2.3 (antibody, human IgG1, kappa, V domains shown, human-murine chimeric antibody, human IgG1/kappa constant regions) VH: ELQLVESGGDLVKPGGSLKLSCAASGFTFSSNGMSWLRQTPDKRLEWVATISSGGRYTYYPDSVKGRFTISRDNAKNTLYLQMSSLKSEDTAMYYCARRGIYDYFDCWGQGTTLTVSS VL: DIQMTQSPASLSISVGETVTITCRASENIHSSLAWYQQKQGKSPQLLVYAATNLADGVPSRFSGSGSGSQYSLKINSLQSEDFGTYYCQHFWGTPWTFGGGTKLDIKR | 
